Experimental data: patent publication US20220064286A1 (Genentech, published 2022)
Substitutions are numbered along the chain they refer to. Numbers in names are those of the source.

T1: human TIGIT protein (human, UniProt Q495A1 22-141, limits assumed)
T1 construct: Recombinant protein (Genentech) used in ELISA screening and as SPR analyte; also called TIGIT antigen
T1 sequence: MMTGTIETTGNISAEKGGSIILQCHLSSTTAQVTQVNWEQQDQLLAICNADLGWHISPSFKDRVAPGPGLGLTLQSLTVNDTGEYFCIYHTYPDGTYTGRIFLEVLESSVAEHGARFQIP

B1: h10A5.L4H4 (antibody, V domains shown)
VH: EVTLKESGPALVKPTQTLTLTCTFSGFSLTTYGMGVSWIRQPPGKALEWLASIWWNGNTYYNPSLRSRLTITKDTSKNQVVLTMTNMDPVDTATYYCAHTGGAVITWFAYWGQGTLVTVSS
VL: EIVMTQSPATLSVSPGERATLSCKASQSVGKNIAWYQQKPGQAPRLLIYYASNRYTGIPARFSGSGSGTEFTLTISSLQSEDFAVYYCQHIYNSPYPFGQGTKVEIK
notes: Fully humanized version; FR/HVR pieces in order
B2: h7E7.L1H3 (antibody, V domains shown)
VH: EVQLVQSGAEVKKPGASVKVSCKASGYTFTEYSIYWVRQAPGQRLEIMGRIDPKNGRTYYVDKFKNRATLTADTSASTAYMELSSLRSEDTAVYFCTRIYGFYFDFWGQGTLVTVSS
VL: DIQLTQSPSFLSASVGDRVTITCKGSQNVNKYLVWYQQKPGKAPKLLIYNTDNLQSGIPSRFSGSGSGTEYTLTISSLQPEDFATYFCYQYNNGFTFGQGTKVEIK
notes: VH: I48M against h7E7.L1H1; FR/HVR pieces
B3: h7E7.L1H8 (antibody, V domains shown)
VH: B2 VH with M48I, T97A
VL: B2 VL
notes: VH: T93A against h7E7.L1H1; FR/HVR pieces
B4: h15C8.L1H6 (antibody, V domains shown)
VH: B2 VH with Y32H, V37L, M48I, Y60F, L70I, A72T, T97A, Y100D
VL: B2 VL with N50S
notes: VH: L69I (printed L691) against h15C8.L1H1; FR/HVR pieces
B5: h7E7.L1H7 (antibody, V domains shown)
VH: B2 VH with M48I, F95Y
VL: B2 VL
notes: VH: F91Y against h7E7.L1H1; FR/HVR pieces
B6: h7E7.L2H1 (antibody, V domains shown)
VH: B2 VH with M48I
VL: B2 VL with I58V
notes: VL: I58V against h7E7.L1H1; FR/HVR pieces
B7: h7E7.L3H1 (antibody, V domains shown)
VH: B2 VH with M48I
VL: B2 VL with Y71F
notes: VL: Y71F against h7E7.L1H1; FR/HVR pieces
B8: h15C8.L1H4 (antibody, V domains shown)
VH: B2 VH with Y32H, V37L, Y60F, A72T, T97A, Y100D
VL: B2 VL with N50S
notes: VH: I48M against h15C8.L1H1; FR/HVR pieces
B9: h15C8.L1H7 (antibody, V domains shown)
VH: B2 VH with Y32H, V37L, M48I, Y60F, A72R, T97A, Y100D
VL: B2 VL with N50S
notes: VH: T71R against h15C8.L1H1; FR/HVR pieces
B10: h7E7.L1H5 (antibody, V domains shown)
VH: B2 VH with M48I, L70I
VL: B2 VL
notes: VH: L69I (printed L691) against h7E7.L1H1; FR/HVR pieces
B11: h15C8.L1H5 (antibody, V domains shown)
VH: B2 VH with Y32H, V37L, M48I, Y60F, A68V, A72T, T97A, Y100D
VL: B2 VL with N50S
notes: VH: A67V against h15C8.L1H1; FR/HVR pieces
B12: h15C8.L5H1 (antibody, V domains shown)
VH: B2 VH with Y32H, V37L, M48I, Y60F, A72T, T97A, Y100D
VL: B2 VL with N50S, I58V, Y71F, F87Y
notes: VL: I58V, Y71F, F87Y against h15C8.L1H1; FR/HVR pieces
B13: h7E7.L1H6 (antibody, V domains shown)
VH: B2 VH with M48I, A72R
VL: B2 VL
notes: VH: A71R against h7E7.L1H1; FR/HVR pieces
B14: h15C8.L1H2 (antibody, V domains shown)
VH: B2 VH with Y32H, M48I, Y60F, A72T, T97A, Y100D
VL: B2 VL with N50S
notes: VH: L37V against h15C8.L1H1; FR/HVR pieces
B15: h7E7.L4H1 (antibody, V domains shown)
VH: B2 VH with M48I
VL: B2 VL with F87Y
notes: VL: F87Y against h7E7.L1H1; FR/HVR pieces
B16: h7E7.L1H4 (antibody, V domains shown)
VH: B2 VH with M48I, A68V
VL: B2 VL
notes: VH: A67V against h7E7.L1H1; FR/HVR pieces
B17: h15C8.L1H8 (antibody, V domains shown)
VH: B2 VH with Y32H, V37L, M48I, Y60F, A72T, F95Y, T97A, Y100D
VL: B2 VL with N50S
notes: VH: F91Y against h15C8.L1H1; FR/HVR pieces
B18: h15C8.L5aH9a (antibody, V domains shown)
VH: B2 VH with Y32H, V37L, Y60F, L70I, A72T, F95Y, T97A, Y100D
VL: B2 VL with N50S, I58V, F87Y
notes: Final humanized 15C8; keeps rat VH I47, L37, A67, T71 and VL Y71; FR/HVR pieces
B19: h15C8.L2H1 (antibody, V domains shown)
VH: B2 VH with Y32H, V37L, M48I, Y60F, A72T, T97A, Y100D
VL: B2 VL with N50S, I58V
notes: VL: I58V against h15C8.L1H1; FR/HVR pieces
B20: h15C8.L4H1 (antibody, V domains shown)
VH: B2 VH with Y32H, V37L, M48I, Y60F, A72T, T97A, Y100D
VL: B2 VL with N50S, F87Y
notes: VL: F87Y against h15C8.L1H1; FR/HVR pieces
B21: h15C8.L3H1 (antibody, V domains shown)
VH: B2 VH with Y32H, V37L, M48I, Y60F, A72T, T97A, Y100D
VL: B2 VL with N50S, Y71F
notes: VL: Y71F against h15C8.L1H1; FR/HVR pieces
B22: h7E7.L5H1 (antibody, V domains shown)
VH: B2 VH with M48I
VL: B2 VL with I58V, Y71F, F87Y
notes: VL: I58V, Y71F, F87Y against h7E7.L1H1; FR/HVR pieces
B23: 7.4A3.Q1E.C96 (antibody, V domains shown)
VH: EVQLVQSGSDLKKPGASVRVSCKASGYTFTSYPMNWVRQAPGHGLEWMGWINTNTGNPTYVQGFTGRFVFSLDTSVNTAYLQISSLKAEDTAVYFCARTGGHTYDSYAFDVWGQGTMVTVSS
VL: DIQLTQSPTFLSASVGDRVTITCRASQVISSSLAWYQQNPGKAPKLLIYAASTLQSGVPSRFSGSGSGTEFTLTISSLQPEDFVTYYCQHLHGYPCNFGQGTKVEIK
notes: built from its name as 7.4A3 with Q1E in VH and C96 kept in VL
B24: 4.1A4.Q1E.C96 (antibody, V domains shown)
VH: EVQLVQSGSELKKPGASVKVSCKASGYTLTNYPMNWVRQAPGRGLEWMGWINTNTGSPAYAQDFTERFVFSLDTSVTTAYLQISSLKAEDTAVYYCARTAITSVYHFDYWGQGTLVTVSS
VL: DIQLTQSPSFLSASVGDRVTITCRASQGISSYLAWYQQKPGKAPRVLIYGATTLQSGVPSRFSGSESGTEFTLTISSLQPEDLATYYCQKLNSHPCSFGQGTKVEIK
notes: built from its name as 4.1A4 with Q1E in VH and C96 kept in VL

molecular target: T1, human TIGIT protein; experiment: SPR, captured mAb
Description: (§1) Briefly, a series S CM5 biosensor chip was activated with N-ethyl-N′-(3-dimethylaminopropyl)-carbodiimide hydrochloride (EDC) and N-hydroxysuccinimide (NHS) reagents according to the supplier's (GE Healthcare Biosciences, Piscataway, N.J.) instructions, and a human antibody capture kit was applied to couple goat anti-human Fc IgGs in order to achieve approximately 10,000 response units (RU) on each flow cell, followed by blocking un-reacted groups with 1M ethanolamine.
(§2) (flow rate: 30 μl/min) with no regeneration between injections. The sensorgrams were recorded and evaluated by BIAcore™ T200 Evaluation Software (version 2.0) after subtraction of reference cell signal. Association rates (kₒₙ) and dissociation rates (koff) were calculated using a simple one-to-one Langmuir binding model. The equilibrium dissociation constant (KD) was calculated as the ratio koff/kₒₙ.
(§3) The first humanized versions, h6B2, L1H1, h10A5.L1H1, h7E7, L1H1, and h15C8.L1H1, which contain both rat CDRs and framework residues at Vernier positions, and the fully humanized versions, h6B2.L2H5, h10A5.L4H4, h7E7.L5H9, and h15C8.L5H9, which contain only rat CDRs were subject to BIAcore affinity measurement by comparison with original rat antibodies, rat6B2, rat10A5, rat7E7 and rat 15C8. For binding affinity determinations of TIGIT antibodies against human TIGIT, cynomolgus monkey TIGIT and human alanine-scanned TIGIT mutants by single-cycle kinetics, Surface Plasmon Resonance (SRP) measurement with a BIACORE™-T200 instrument was used, as described above.

| Kd | koff | kon | Binder |
| --- | --- | --- | --- |
| 0.44 nM | 0.00227 s⁻¹ | 5.21e+06 M⁻¹ s⁻¹ | B1 |
| 0.38 nM | 0.00107 s⁻¹ | 2.82e+06 M⁻¹ s⁻¹ | B2 |
| 0.36 nM | 0.00101 s⁻¹ | 2.78e+06 M⁻¹ s⁻¹ | B3 |
| 0.55 nM | 0.000756 s⁻¹ | 1.38e+06 M⁻¹ s⁻¹ | B4 |
| 0.31 nM | 0.000849 s⁻¹ | 2.74e+06 M⁻¹ s⁻¹ | B5 |
| 0.24 nM | 0.000504 s⁻¹ | 2.06e+06 M⁻¹ s⁻¹ | B6 |
| 0.24 nM | 0.000218 s⁻¹ | 920000 M⁻¹ s⁻¹ | B7 |
| 0.59 nM | 0.000498 s⁻¹ | 841000 M⁻¹ s⁻¹ | B8 |
| 0.98 nM | 0.000597 s⁻¹ | 610000 M⁻¹ s⁻¹ | B9 |
| 0.4 nM | 0.00129 s⁻¹ | 3.24e+06 M⁻¹ s⁻¹ | B10 |
| 0.71 nM | 0.000567 s⁻¹ | 798000 M⁻¹ s⁻¹ | B11 |
| 0.83 nM | 0.000562 s⁻¹ | 674000 M⁻¹ s⁻¹ | B12 |
| 0.35 nM | 0.000648 s⁻¹ | 1.85e+06 M⁻¹ s⁻¹ | B13 |
| 1.03 nM | 0.00107 s⁻¹ | 1.04e+06 M⁻¹ s⁻¹ | B14 |
| 0.27 nM | 0.000796 s⁻¹ | 2.95e+06 M⁻¹ s⁻¹ | B15 |
| 0.27 nM | 0.000749 s⁻¹ | 2.79e+06 M⁻¹ s⁻¹ | B16 |
| 0.61 nM | 0.000381 s⁻¹ | 620000 M⁻¹ s⁻¹ | B17 |
| 0.38 nM | 0.000421 s⁻¹ | 1.12e+06 M⁻¹ s⁻¹ | B18 |
| 0.66 nM | 0.000506 s⁻¹ | 771000 M⁻¹ s⁻¹ | B19 |
| 0.64 nM | 0.000611 s⁻¹ | 955000 M⁻¹ s⁻¹ | B20 |
| 0.84 nM | 0.000533 s⁻¹ | 631000 M⁻¹ s⁻¹ | B21 |
| 0.32 nM | 0.00104 s⁻¹ | 3.21e+06 M⁻¹ s⁻¹ | B22 |

molecular target: T2, cynomolgus monkey (cyno) TIGIT protein (cynomolgus monkey, UniProt A0A7N9I9V4 89-209); experiment: SPR, captured mAb
Description: as §1, §2, §3

T2 sequence (A0A7N9I9V4 entry or part of it): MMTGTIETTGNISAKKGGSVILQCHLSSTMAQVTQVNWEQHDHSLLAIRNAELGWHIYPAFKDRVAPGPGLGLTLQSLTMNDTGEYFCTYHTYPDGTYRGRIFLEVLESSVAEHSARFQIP

| Kd | koff | kon | Binder |
| --- | --- | --- | --- |
| 0.85 nM | 0.00129 s⁻¹ | 1.52e+06 M⁻¹ s⁻¹ | B1 |
| 0.42 nM | 0.000381 s⁻¹ | 908000 M⁻¹ s⁻¹ | B2 |
| 0.39 nM | 0.000331 s⁻¹ | 845000 M⁻¹ s⁻¹ | B3 |
| 0.84 nM | 0.000556 s⁻¹ | 663000 M⁻¹ s⁻¹ | B4 |
| 0.43 nM | 0.000286 s⁻¹ | 664000 M⁻¹ s⁻¹ | B5 |
| 0.36 nM | 0.000179 s⁻¹ | 493000 M⁻¹ s⁻¹ | B6 |
| 0.95 nM | 0.00122 s⁻¹ | 1.28e+06 M⁻¹ s⁻¹ | B7 |
| 1.05 nM | 0.000558 s⁻¹ | 532000 M⁻¹ s⁻¹ | B8 |
| 0.94 nM | 0.000206 s⁻¹ | 219000 M⁻¹ s⁻¹ | B9 |
| 0.4 nM | 0.000359 s⁻¹ | 898000 M⁻¹ s⁻¹ | B10 |
| 1.15 nM | 0.000558 s⁻¹ | 484000 M⁻¹ s⁻¹ | B11 |
| 2.68 nM | 0.000752 s⁻¹ | 281000 M⁻¹ s⁻¹ | B12 |
| 0.44 nM | 0.000284 s⁻¹ | 641000 M⁻¹ s⁻¹ | B13 |
| 2.1 nM | 0.000806 s⁻¹ | 382000 M⁻¹ s⁻¹ | B14 |
| 0.44 nM | 0.000274 s⁻¹ | 629000 M⁻¹ s⁻¹ | B15 |
| 0.4 nM | 0.000243 s⁻¹ | 601000 M⁻¹ s⁻¹ | B16 |
| 0.41 nM | 0.000119 s⁻¹ | 291000 M⁻¹ s⁻¹ | B17 |
| 1.03 nM | 0.000613 s⁻¹ | 596000 M⁻¹ s⁻¹ | B18 |
| 1 nM | 0.000502 s⁻¹ | 502000 M⁻¹ s⁻¹ | B19 |
| 1.15 nM | 0.000559 s⁻¹ | 485000 M⁻¹ s⁻¹ | B20 |
| 1.75 nM | 0.000588 s⁻¹ | 336000 M⁻¹ s⁻¹ | B21 |
| 0.56 nM | 0.000324 s⁻¹ | 575000 M⁻¹ s⁻¹ | B22 |

molecular target: T1, human TIGIT protein; experiment: SPR, monovalent affinity

| Kd | Binder |
| --- | --- |
| 3.45 nM | B23 |
| 3.6 nM | B24 |

molecular target: T2, cynomolgus monkey (cyno) TIGIT protein; experiment: SPR, monovalent affinity

| Kd | Binder |
| --- | --- |
| 2.09 nM | B23 |
| 2.4 nM | B24 |
